Data taken from paper doi:10.1101/844829.

Tests used:
[1] = target: Rhodamine-labeled GMPCPP-stabilized microtubules from porcine tubulin (10 % rhodamine-labeled tubulin) (porcine) (UniProt P02550); assay: single-molecule TIRF microscopy
[2] = target: GMPCPP-stabilized microtubules polymerized from porcine tubulin (porcine) (UniProt P02550); assay: optical tweezers with 2D force clamp

- mean end residence time at the microtubule plus end (no load) [1]: 80 s
- mean run time on the microtubule (no load) [1]: 150 s
- end residence time at the microtubule plus end (sideward load 0.5 pN) [2]: 33 s
- end residence time extrapolated to zero load from the high-assisting-load data [2]: 17 s
- mean end residence time at the microtubule plus end (without load) [2]: 64 s
Substance: Full-length budding yeast Kip3 (Kip3-eGFP-His6) (from UniProt P53086 1-805) (natural protein)
